Results reported in patent publication US20150291681A1 (published 2015).
Each block holds one binder with its values, some of them ahead of it.

Experiments:
[1] = target: T1, EGFP labeled Notch (Drosophila Notch stably expressed on S2 cells) (Drosophila, UniProt P07207 53-2703); experiment: S2 cell aggregation; Sertom DNA transfected into Notch-EGFP cells (cis), competitor of Sertom cells (trans)
T1 construct: whole, on cells; how EGFP is joined to Notch is not described; also called Notch+EGFP; N+EGFP; not shown: EGFP label
Description: Stable lines of EGFP-labeled Notch cells were added to stable lines of tomato tagged Ser-expressing cells, allowed to mix for 24 hours at room temperature and were assayed for the formation of interacting cellular aggregates (Fehon et al., 1990, Cell 3:523-534). The Notch expressing cells were transiently transfected with tomato-tagged Ser DNA at concentrations ranging between 0.0 μg and 2.0 μg prior to mixing with Ser expressing cells to induce cis-inhibition by co-expressed Ser with Notch. When performed with wild type Ser DNA (A of this figure), effective inhibition of aggregation occurs in a dose dependent manner when the Ser expressing cells (Ser labeled columns) are mixed with the transfected Notch cells. When Ser expressing cells are not mixed with the transfected Notch cells (S2R+), self-aggregate formation is minimal.
S2 cells stably expressing tomato-tagged Ser (Sertom) were mixed with S2 cells stably expressing EGFP labeled Notch and allowed to aggregate with one another to determine baseline levels of Notch-Ser interactions (FIG. 6). Subsequent experiments transiently transfected the stable Notch EGFP line with either Sertom (wild type), SerDel6tom or SerDel3tom transgenes at varying concentrations to promote cis-inhibition within the Notch-expressing cells. […]

[2] = target: T2, endogenous Drosophila Notch (wing imaginal disc) (Drosophila, UniProt P07207 53-2703); experiment: summing-up sentence; inferred from trans-activation in wing discs and aggregation assays
T2 construct: whole, on cells; also called Notch receptor
Description: To define potential inhibitory domains in the extracellular domain of the Notch ligands, a systematic deletion analysis of an extracellular region of the Drosophila Notch ligand Ser was performed. Ser has 14 ELRs in its extracellular domain (FIG. 4) and has been the ligand best explored for its inhibitory properties (Klein et al., 1997, Dev. Biol. 1:123-134; Li and Baker, 2004, BMC Dev. Biol. 5). […] Using the Gal4ptc promoter, the influence of ectopic Ser expression on Notch activity was measured by examining how it affects the expression of CUT, a transcriptional target of Notch signals and is a classic indicator of Notch activity in the dorsal/ventral boundary and ventral region of the wing disc (Doherty et al., 1996, Genes Dev. 4:421-434).
Ser constructs were expressed in the third instar imaginal wing disc via the ptc promoter using the Gal4 system (Brand and Perrimon, 1993, Development 2:401-415). Notch activity was assessed by examination of CUT expression induced in response to Notch activity (Neumann and Cohen, 1996, Development 11:3477-3485). […]

T2 sequence (P07207 53-2703): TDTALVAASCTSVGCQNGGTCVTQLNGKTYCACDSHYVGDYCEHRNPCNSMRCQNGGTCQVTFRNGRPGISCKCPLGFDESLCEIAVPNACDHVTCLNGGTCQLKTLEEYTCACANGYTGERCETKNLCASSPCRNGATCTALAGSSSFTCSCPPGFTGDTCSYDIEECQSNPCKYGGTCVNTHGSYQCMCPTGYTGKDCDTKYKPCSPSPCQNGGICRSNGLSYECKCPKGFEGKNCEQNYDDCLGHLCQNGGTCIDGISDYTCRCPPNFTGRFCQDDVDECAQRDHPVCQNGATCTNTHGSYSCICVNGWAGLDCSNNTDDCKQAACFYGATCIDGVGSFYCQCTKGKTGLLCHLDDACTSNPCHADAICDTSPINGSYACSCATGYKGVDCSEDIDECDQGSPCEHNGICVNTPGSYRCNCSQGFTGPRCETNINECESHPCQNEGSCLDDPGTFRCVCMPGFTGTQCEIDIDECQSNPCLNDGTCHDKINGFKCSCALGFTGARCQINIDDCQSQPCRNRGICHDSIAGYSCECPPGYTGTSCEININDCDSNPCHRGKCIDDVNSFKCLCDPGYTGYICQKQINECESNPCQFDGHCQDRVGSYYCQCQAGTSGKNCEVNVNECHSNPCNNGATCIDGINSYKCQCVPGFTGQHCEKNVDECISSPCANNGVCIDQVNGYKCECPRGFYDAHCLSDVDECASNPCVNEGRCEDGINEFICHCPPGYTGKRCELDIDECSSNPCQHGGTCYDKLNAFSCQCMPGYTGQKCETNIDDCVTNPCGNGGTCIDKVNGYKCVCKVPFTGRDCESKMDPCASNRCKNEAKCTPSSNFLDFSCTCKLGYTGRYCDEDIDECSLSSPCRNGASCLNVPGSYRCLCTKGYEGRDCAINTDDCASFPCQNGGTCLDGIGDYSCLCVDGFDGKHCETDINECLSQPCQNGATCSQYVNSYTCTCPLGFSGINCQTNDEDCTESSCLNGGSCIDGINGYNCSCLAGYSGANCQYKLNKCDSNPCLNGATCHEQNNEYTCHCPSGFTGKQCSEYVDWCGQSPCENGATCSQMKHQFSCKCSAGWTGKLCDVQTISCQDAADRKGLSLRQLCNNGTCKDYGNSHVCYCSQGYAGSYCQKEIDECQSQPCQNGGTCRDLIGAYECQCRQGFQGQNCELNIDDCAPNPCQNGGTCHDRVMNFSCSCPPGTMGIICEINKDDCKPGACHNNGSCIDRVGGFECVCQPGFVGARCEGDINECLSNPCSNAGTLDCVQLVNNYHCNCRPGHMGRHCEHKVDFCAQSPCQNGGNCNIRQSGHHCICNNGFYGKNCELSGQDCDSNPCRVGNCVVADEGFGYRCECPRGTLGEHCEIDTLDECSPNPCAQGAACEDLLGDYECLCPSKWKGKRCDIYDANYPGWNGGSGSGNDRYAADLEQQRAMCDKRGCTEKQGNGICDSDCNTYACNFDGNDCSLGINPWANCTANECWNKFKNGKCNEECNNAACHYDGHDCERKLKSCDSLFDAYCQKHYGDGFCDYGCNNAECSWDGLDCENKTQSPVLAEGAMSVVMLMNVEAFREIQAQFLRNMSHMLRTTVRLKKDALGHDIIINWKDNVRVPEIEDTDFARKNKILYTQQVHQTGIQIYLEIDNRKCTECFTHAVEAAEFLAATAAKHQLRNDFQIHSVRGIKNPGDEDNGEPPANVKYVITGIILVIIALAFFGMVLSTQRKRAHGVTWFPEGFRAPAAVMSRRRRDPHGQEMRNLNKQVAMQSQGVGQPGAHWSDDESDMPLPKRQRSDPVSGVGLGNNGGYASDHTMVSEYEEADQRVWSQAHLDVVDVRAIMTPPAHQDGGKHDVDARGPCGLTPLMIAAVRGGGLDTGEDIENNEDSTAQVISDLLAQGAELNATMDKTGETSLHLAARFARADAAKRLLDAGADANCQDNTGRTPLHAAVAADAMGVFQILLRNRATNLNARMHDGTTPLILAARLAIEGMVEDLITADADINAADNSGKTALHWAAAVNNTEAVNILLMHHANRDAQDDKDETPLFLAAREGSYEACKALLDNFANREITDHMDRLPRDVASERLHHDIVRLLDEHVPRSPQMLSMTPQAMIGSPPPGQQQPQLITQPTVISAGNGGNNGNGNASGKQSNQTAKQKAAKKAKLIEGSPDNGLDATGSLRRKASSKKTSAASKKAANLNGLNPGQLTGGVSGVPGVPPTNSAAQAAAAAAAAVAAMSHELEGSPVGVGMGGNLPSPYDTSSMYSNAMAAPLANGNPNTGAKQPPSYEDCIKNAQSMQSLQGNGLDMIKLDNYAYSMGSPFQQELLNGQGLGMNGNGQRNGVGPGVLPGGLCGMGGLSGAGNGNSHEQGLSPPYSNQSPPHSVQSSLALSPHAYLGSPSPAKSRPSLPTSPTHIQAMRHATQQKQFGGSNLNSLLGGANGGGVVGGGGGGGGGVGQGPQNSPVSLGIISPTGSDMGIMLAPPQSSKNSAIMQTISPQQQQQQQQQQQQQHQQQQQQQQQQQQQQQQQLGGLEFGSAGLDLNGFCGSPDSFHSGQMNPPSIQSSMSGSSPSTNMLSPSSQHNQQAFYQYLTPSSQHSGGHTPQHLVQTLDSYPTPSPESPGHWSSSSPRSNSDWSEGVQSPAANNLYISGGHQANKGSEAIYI
T1 sequence (P07207 53-2703): as above

binding result [1]: binds
B1: tomato-tagged Ser (Sertom), wild type Drosophila Serrate (ligand)
chain: GNFELEILEISNTNSHLLNGYCCGMPAELRATKTIGCSPCTTAFRLCLKEYQTTEQGASISTGCSFGNATTKILGGSSFVLSDPGVGAIVLPFTFRWTKSFTLILQALDMYNTSYPDAERLIEETSYSGVILPSPEWKTLDHIGRNARITYRVRVQCAVTYYNTTCTTFCRPRDDQFGHYACGSEGQKLCLNGWQGVNCEEAICKAGCDPVHGKCDRPGECECRPGWRGPLCNECMVYPGCKHGSCNGSAWKCVCDTNWGGILCDQDLNFCGTHEPCKHGGTCENTAPDKYRCTCAEGLSGEQCEIVEHPCATRPCRNGGTCTLKTSNRTQAQVYRTSHGRSNMGRPVRRSSSMRSLDHLRPEGQALNGSSSSGLVSLGSLQLQQQLAPDFTCDCAAGWTGPTCEINIDECAGGPCEHGGTCIDLIGGFRCECPPEWHGDVCQVDVNECEAPHSAGIAANALLTTTATAIIGSNLSSTALLAALTSAVASTSLAIGPCINAKECRNQPGSFACICKEGWGGVTCAENLDDCVGQCRNGATCIDLVNDYRCACASGFTGRDCETDIDECATSPCRNGGECVDMVGKFNCICPLGYSGSLCEEAKENCTPSPCLEGHCLNTPEGYYCHCPPDRAGKHCEQLRPLCSQPPCNEGCFANVSLATSATTTTTTTTTATTTRKMAKPSGLPCSGHGSCEMSDVGTFCKCHVGHTGTFCEHNLNECSPNPCRNGGICLDGDGDFTCECMSGWTGKRCSERATGCYAGQCQNGGTCMPGAPDKALQPHCRCAPGWTGLFCAEAIDQCRGQPCHNGGTCESGAGWFRCVCAQGFSGPDCRINVNECSPQPCQGGATCIDGIGGYSCICPPGRHGLRCEILLSDPKSACQNASNTISPYTALNRSQNWLDIALTGRTEDDENCNACVCENGTSRCTNLWCGLPNCYKVDPLSKSSNLSGVCKQHEVCVPALSETCLSSPCNVRGDCRALEPSRRVAPPRLPAKSSCWPNQAVVNENCARLTILLALERVGKGASVEGLCSLVRVLLAAQLIKKPASTFGQDPGMLMVLCDLKTGTNDTVELTVSSSKLNDPQLPVAVGLLGELLSSRQLNGIQRRKELELQHAKLAALTSIVEVKLETARVADGSGHSLLIGVLCGVFIVLVGFSVFISLYWKQRLAYRTSSGMNLTPSLDALRHEEEKSNNLQNEENLRRYTNPLKGSTSSLRAATGMELSLNPAPELAASAASSSALHRSQPLFPPCDFERELDSSTGLKQAHKRSSQILLHKTQNSDMRKNTVGSLDSPRKDFGKRSINCKSMPPSSGDEGSDVLATTVMV
notes: The tomato tag is an internal insertion in the intracellular domain; also called Ser+Tomato; Ser Bsp tom; not shown: fluorescent tomato tag (Shaner et al., 2004), INSERTED within the intracellular domain at the Bsp EI site of the Ser cDN

binding result [2]: binds
B2: wild type Drosophila Serrate (Ser), UAS-Ser transgene (ligand)
chain: B1 chain
notes: also called wild type Ser
